# Values quoted from earlier work as cited in publication PMC9200754.
# How the values were obtained:
# p65 (Homo sapiens) = p65 (Homo sapiens) (UniProt Q04206); conditions: cited from earlier work
# p50 (Homo sapiens) = p50 (Homo sapiens) (UniProt P19838); conditions: cited from earlier work
# Chain of UniProt Q04206 (Q04206 whole entry): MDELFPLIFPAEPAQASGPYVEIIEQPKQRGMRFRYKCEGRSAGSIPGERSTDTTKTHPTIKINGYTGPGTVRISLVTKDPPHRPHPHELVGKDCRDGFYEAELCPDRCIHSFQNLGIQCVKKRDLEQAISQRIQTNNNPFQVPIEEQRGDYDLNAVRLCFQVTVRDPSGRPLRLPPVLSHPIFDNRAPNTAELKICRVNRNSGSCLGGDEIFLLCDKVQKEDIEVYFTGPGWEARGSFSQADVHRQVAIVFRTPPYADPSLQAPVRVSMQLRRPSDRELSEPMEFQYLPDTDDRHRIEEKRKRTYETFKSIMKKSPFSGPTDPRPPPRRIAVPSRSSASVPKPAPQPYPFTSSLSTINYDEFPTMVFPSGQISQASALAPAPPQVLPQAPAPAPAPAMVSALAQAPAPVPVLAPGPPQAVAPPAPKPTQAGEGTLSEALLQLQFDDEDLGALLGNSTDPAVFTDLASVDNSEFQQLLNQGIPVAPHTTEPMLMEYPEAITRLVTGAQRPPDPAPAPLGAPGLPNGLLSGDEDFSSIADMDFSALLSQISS
substance,measurement,setting,value
p50 (from UniProt P19838),Kd,p65 (Homo sapiens),10 nM
same,Kd,p50 (Homo sapiens),30 nM
